Results reported in US20240270846A1 (published 2024).

target: T1, CD3 epsilon homodimer protein (UniProt P07766 23-126); assay: SPR Biacore T200, CD3 epsilon homodimer on chip, antibody as analyte;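 also: homodimer amine-coupled to a CM4 sensor chip, run at 25 °C in HBS-EP+ buffer, with kinetic parameters derived in Biacore T200 Evaluation Software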
T1 construct: also called CD3 (CD3 epsilon)
T1 sequence (P07766 23-126): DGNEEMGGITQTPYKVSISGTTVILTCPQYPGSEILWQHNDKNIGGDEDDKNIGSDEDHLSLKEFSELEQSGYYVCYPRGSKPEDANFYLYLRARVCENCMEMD

Row | Binder | KD ratio (KD of CE115HA000 / KD of altered form)
1 | CE115HA000 H chain altered form W33H (antibody, human IgG1, kappa, L234A L235A, N297A, name in Kabat numbering, one-arm antibody) heavy: QVQLVESGGGVVQPGRSLRLSCAASGFTFSNAHMHWVRQAPGKGLEWVAQIKAKSNNYATYYAESVKGRFTISRDDSKNSLYLQMNSLKTEDTAVYYCRYVHYGAYYGVDAWGQGTTVTVSSASTKGPSVFPLAPSSKSTSGGTAALGCLVKDYFPEPVTVSWNSGALTSGVHTFPAVLQSSGLYSLSSVVTVPSSSLGTQTYICNVNHKPSNTKVDKKVEPKSCDKTHTCPPCPAPEAAGGPSVFLFPPKPKDTLMISRTPEVTCVVVDVSHEDPEVKFNWYVDGVEVHNAKTKPREEQYASTYRVVSVLTVLHQDWLNGKEYKCKVSNKALPAPIEKTISKAKGQPREPQVYTLPPSRCELTKNQVSLSCAVKGFYPSDIAVEWESNGQPENNYKTTPPVLDSDGSFFLVSKLTVDKSRWQQGNVFSCSVMHEALHNHYTQKSLSLSPDYKDDDDK EPKSSDKTHTCPPCPAPELLGGPSVFLFPPKPKDTLMISRTPEVTCVVVDVSHEDPEVKFNWYVDGVEVHNAKTKPREEQYNSTYRVVSVLTVLHQDWLNGKEYKCKVSNKALPAPIEKTISKAKGQPREPQVCTLPPSRDELTKNQVSLWCLVKGFYPSDIAVEWESNGQPENNYKTTPPVLDSDGSFFLYSKLTVDKSRWQQGNVFSCSVMHEALHNRYTQKSLSLSP light: DIVMTQSPLSLPVTPGEPASISCRSSQSLVHSNRNTYLHWYQQKPGQAPRLLIYKVSNRFSGVPDRFSGSGSGTDFTLKISRVEAEDVGVYYCGQGTQVPYTFGQGTKLEIKRTVAAPSVFIFPPSDEQLKSGTASVVCLLNNFYPREAKVQWKVDNALQSGNSQESVTEQDSKDSTYSLSSTLTLSKADYEKHKVYACEVTHQGLSSPVTKSFNRGEC | 4.96
2 | CE115HA000 H chain altered form W33L (antibody, human IgG1, kappa, L234A L235A, N297A, name in Kabat numbering, one-arm antibody) heavy: QVQLVESGGGVVQPGRSLRLSCAASGFTFSNALMHWVRQAPGKGLEWVAQIKAKSNNYATYYAESVKGRFTISRDDSKNSLYLQMNSLKTEDTAVYYCRYVHYGAYYGVDAWGQGTTVTVSSASTKGPSVFPLAPSSKSTSGGTAALGCLVKDYFPEPVTVSWNSGALTSGVHTFPAVLQSSGLYSLSSVVTVPSSSLGTQTYICNVNHKPSNTKVDKKVEPKSCDKTHTCPPCPAPEAAGGPSVFLFPPKPKDTLMISRTPEVTCVVVDVSHEDPEVKFNWYVDGVEVHNAKTKPREEQYASTYRVVSVLTVLHQDWLNGKEYKCKVSNKALPAPIEKTISKAKGQPREPQVYTLPPSRCELTKNQVSLSCAVKGFYPSDIAVEWESNGQPENNYKTTPPVLDSDGSFFLVSKLTVDKSRWQQGNVFSCSVMHEALHNHYTQKSLSLSPDYKDDDDK EPKSSDKTHTCPPCPAPELLGGPSVFLFPPKPKDTLMISRTPEVTCVVVDVSHEDPEVKFNWYVDGVEVHNAKTKPREEQYNSTYRVVSVLTVLHQDWLNGKEYKCKVSNKALPAPIEKTISKAKGQPREPQVCTLPPSRDELTKNQVSLWCLVKGFYPSDIAVEWESNGQPENNYKTTPPVLDSDGSFFLYSKLTVDKSRWQQGNVFSCSVMHEALHNRYTQKSLSLSP light: DIVMTQSPLSLPVTPGEPASISCRSSQSLVHSNRNTYLHWYQQKPGQAPRLLIYKVSNRFSGVPDRFSGSGSGTDFTLKISRVEAEDVGVYYCGQGTQVPYTFGQGTKLEIKRTVAAPSVFIFPPSDEQLKSGTASVVCLLNNFYPREAKVQWKVDNALQSGNSQESVTEQDSKDSTYSLSSTLTLSKADYEKHKVYACEVTHQGLSSPVTKSFNRGEC | 56600
3 | CE115HA000 H chain altered form W33Y (antibody, human IgG1, kappa, L234A L235A, N297A, name in Kabat numbering, one-arm antibody) heavy: QVQLVESGGGVVQPGRSLRLSCAASGFTFSNAYMHWVRQAPGKGLEWVAQIKAKSNNYATYYAESVKGRFTISRDDSKNSLYLQMNSLKTEDTAVYYCRYVHYGAYYGVDAWGQGTTVTVSSASTKGPSVFPLAPSSKSTSGGTAALGCLVKDYFPEPVTVSWNSGALTSGVHTFPAVLQSSGLYSLSSVVTVPSSSLGTQTYICNVNHKPSNTKVDKKVEPKSCDKTHTCPPCPAPEAAGGPSVFLFPPKPKDTLMISRTPEVTCVVVDVSHEDPEVKFNWYVDGVEVHNAKTKPREEQYASTYRVVSVLTVLHQDWLNGKEYKCKVSNKALPAPIEKTISKAKGQPREPQVYTLPPSRCELTKNQVSLSCAVKGFYPSDIAVEWESNGQPENNYKTTPPVLDSDGSFFLVSKLTVDKSRWQQGNVFSCSVMHEALHNHYTQKSLSLSPDYKDDDDK EPKSSDKTHTCPPCPAPELLGGPSVFLFPPKPKDTLMISRTPEVTCVVVDVSHEDPEVKFNWYVDGVEVHNAKTKPREEQYNSTYRVVSVLTVLHQDWLNGKEYKCKVSNKALPAPIEKTISKAKGQPREPQVCTLPPSRDELTKNQVSLWCLVKGFYPSDIAVEWESNGQPENNYKTTPPVLDSDGSFFLYSKLTVDKSRWQQGNVFSCSVMHEALHNRYTQKSLSLSP light: DIVMTQSPLSLPVTPGEPASISCRSSQSLVHSNRNTYLHWYQQKPGQAPRLLIYKVSNRFSGVPDRFSGSGSGTDFTLKISRVEAEDVGVYYCGQGTQVPYTFGQGTKLEIKRTVAAPSVFIFPPSDEQLKSGTASVVCLLNNFYPREAKVQWKVDNALQSGNSQESVTEQDSKDSTYSLSSTLTLSKADYEKHKVYACEVTHQGLSSPVTKSFNRGEC | 0.69

Other lines, results leading:

Row | KD ratio (KD of CE115HA000 / KD of altered form) | Binder
4 | 5.65 | CE115HA000 H chain altered form Y55S (antibody, human IgG1, kappa, L234A L235A, N297A, name in Kabat numbering, one-arm antibody) heavy: QVQLVESGGGVVQPGRSLRLSCAASGFTFSNAWMHWVRQAPGKGLEWVAQIKAKSNNSATYYAESVKGRFTISRDDSKNSLYLQMNSLKTEDTAVYYCRYVHYGAYYGVDAWGQGTTVTVSSASTKGPSVFPLAPSSKSTSGGTAALGCLVKDYFPEPVTVSWNSGALTSGVHTFPAVLQSSGLYSLSSVVTVPSSSLGTQTYICNVNHKPSNTKVDKKVEPKSCDKTHTCPPCPAPEAAGGPSVFLFPPKPKDTLMISRTPEVTCVVVDVSHEDPEVKFNWYVDGVEVHNAKTKPREEQYASTYRVVSVLTVLHQDWLNGKEYKCKVSNKALPAPIEKTISKAKGQPREPQVYTLPPSRCELTKNQVSLSCAVKGFYPSDIAVEWESNGQPENNYKTTPPVLDSDGSFFLVSKLTVDKSRWQQGNVFSCSVMHEALHNHYTQKSLSLSPDYKDDDDK EPKSSDKTHTCPPCPAPELLGGPSVFLFPPKPKDTLMISRTPEVTCVVVDVSHEDPEVKFNWYVDGVEVHNAKTKPREEQYNSTYRVVSVLTVLHQDWLNGKEYKCKVSNKALPAPIEKTISKAKGQPREPQVCTLPPSRDELTKNQVSLWCLVKGFYPSDIAVEWESNGQPENNYKTTPPVLDSDGSFFLYSKLTVDKSRWQQGNVFSCSVMHEALHNRYTQKSLSLSP light: DIVMTQSPLSLPVTPGEPASISCRSSQSLVHSNRNTYLHWYQQKPGQAPRLLIYKVSNRFSGVPDRFSGSGSGTDFTLKISRVEAEDVGVYYCGQGTQVPYTFGQGTKLEIKRTVAAPSVFIFPPSDEQLKSGTASVVCLLNNFYPREAKVQWKVDNALQSGNSQESVTEQDSKDSTYSLSSTLTLSKADYEKHKVYACEVTHQGLSSPVTKSFNRGEC
5 | 0.89 | CE115HA000 H chain altered form Y55D (antibody, human IgG1, kappa, L234A L235A, N297A, name in Kabat numbering, one-arm antibody) heavy: QVQLVESGGGVVQPGRSLRLSCAASGFTFSNAWMHWVRQAPGKGLEWVAQIKAKSNNDATYYAESVKGRFTISRDDSKNSLYLQMNSLKTEDTAVYYCRYVHYGAYYGVDAWGQGTTVTVSSASTKGPSVFPLAPSSKSTSGGTAALGCLVKDYFPEPVTVSWNSGALTSGVHTFPAVLQSSGLYSLSSVVTVPSSSLGTQTYICNVNHKPSNTKVDKKVEPKSCDKTHTCPPCPAPEAAGGPSVFLFPPKPKDTLMISRTPEVTCVVVDVSHEDPEVKFNWYVDGVEVHNAKTKPREEQYASTYRVVSVLTVLHQDWLNGKEYKCKVSNKALPAPIEKTISKAKGQPREPQVYTLPPSRCELTKNQVSLSCAVKGFYPSDIAVEWESNGQPENNYKTTPPVLDSDGSFFLVSKLTVDKSRWQQGNVFSCSVMHEALHNHYTQKSLSLSPDYKDDDDK EPKSSDKTHTCPPCPAPELLGGPSVFLFPPKPKDTLMISRTPEVTCVVVDVSHEDPEVKFNWYVDGVEVHNAKTKPREEQYNSTYRVVSVLTVLHQDWLNGKEYKCKVSNKALPAPIEKTISKAKGQPREPQVCTLPPSRDELTKNQVSLWCLVKGFYPSDIAVEWESNGQPENNYKTTPPVLDSDGSFFLYSKLTVDKSRWQQGNVFSCSVMHEALHNRYTQKSLSLSP light: DIVMTQSPLSLPVTPGEPASISCRSSQSLVHSNRNTYLHWYQQKPGQAPRLLIYKVSNRFSGVPDRFSGSGSGTDFTLKISRVEAEDVGVYYCGQGTQVPYTFGQGTKLEIKRTVAAPSVFIFPPSDEQLKSGTASVVCLLNNFYPREAKVQWKVDNALQSGNSQESVTEQDSKDSTYSLSSTLTLSKADYEKHKVYACEVTHQGLSSPVTKSFNRGEC
6 | 0.99 | CE115HA000 H chain altered form Y55G (antibody, human IgG1, kappa, L234A L235A, N297A, name in Kabat numbering, one-arm antibody) heavy: QVQLVESGGGVVQPGRSLRLSCAASGFTFSNAWMHWVRQAPGKGLEWVAQIKAKSNNGATYYAESVKGRFTISRDDSKNSLYLQMNSLKTEDTAVYYCRYVHYGAYYGVDAWGQGTTVTVSSASTKGPSVFPLAPSSKSTSGGTAALGCLVKDYFPEPVTVSWNSGALTSGVHTFPAVLQSSGLYSLSSVVTVPSSSLGTQTYICNVNHKPSNTKVDKKVEPKSCDKTHTCPPCPAPEAAGGPSVFLFPPKPKDTLMISRTPEVTCVVVDVSHEDPEVKFNWYVDGVEVHNAKTKPREEQYASTYRVVSVLTVLHQDWLNGKEYKCKVSNKALPAPIEKTISKAKGQPREPQVYTLPPSRCELTKNQVSLSCAVKGFYPSDIAVEWESNGQPENNYKTTPPVLDSDGSFFLVSKLTVDKSRWQQGNVFSCSVMHEALHNHYTQKSLSLSPDYKDDDDK EPKSSDKTHTCPPCPAPELLGGPSVFLFPPKPKDTLMISRTPEVTCVVVDVSHEDPEVKFNWYVDGVEVHNAKTKPREEQYNSTYRVVSVLTVLHQDWLNGKEYKCKVSNKALPAPIEKTISKAKGQPREPQVCTLPPSRDELTKNQVSLWCLVKGFYPSDIAVEWESNGQPENNYKTTPPVLDSDGSFFLYSKLTVDKSRWQQGNVFSCSVMHEALHNRYTQKSLSLSP light: DIVMTQSPLSLPVTPGEPASISCRSSQSLVHSNRNTYLHWYQQKPGQAPRLLIYKVSNRFSGVPDRFSGSGSGTDFTLKISRVEAEDVGVYYCGQGTQVPYTFGQGTKLEIKRTVAAPSVFIFPPSDEQLKSGTASVVCLLNNFYPREAKVQWKVDNALQSGNSQESVTEQDSKDSTYSLSSTLTLSKADYEKHKVYACEVTHQGLSSPVTKSFNRGEC
